Experimental data from publication PMC5605669 (2017).

B1: APOBEC3G, wild type [human] / itself (parent complex)
chain: MKPHFRNTVERMYRDTFSYNFYNRPILSRRNTVWLCYEVKTKGPSRPPLDAKIFRGQVYSELKYHPEMRFFHWFSKWRKLHRDQEYEVTWYISWSPCTKCTRDMATFLAEDPKVTLTIFVARLYYFWDPDYQEALRSLCQKRDGPRATMKIMNYDEFQHCWSKFVYSQRELFEPWNNLPKYYILLHIMLGEILRHSMDPPTFTFNFNNEPWVRGRHETYLCYEVERMHNDTWVLLNQRRGFLCNQAPHKHGFLEGRHAELCFLDVIPFWKLDLDQDYRVTCFTSWSPCFSCAQEMAKFISKNKHVSLCIFTARIYDDQGRCQEGLRTLAEAGAKISIMTYSEFKHCWDTFVDHQGCPFQPWDGLDEHSQDLSGRLRAILQNQEN

Variants of: B1
Experiment: single-molecule ssDNA binding curves fit with two-step binding model (k2 from k slow); parent: 0.007; read off a plot

screen value [s⁻¹] | Variant
~0.0057 | chain 1 R313A, chain 1 D316A, chain 1 D317A, chain 1 Q318A
~0.0066 | chain 1 I314A, chain 1 Y315A
